# From US20190083612A1 (RINAT NEUROSCIENCE, published 2019)
# T1: rat PD-1 on primary rat T cells (rat, UniProt D3ZIN8 25-287)
# T1 sequence: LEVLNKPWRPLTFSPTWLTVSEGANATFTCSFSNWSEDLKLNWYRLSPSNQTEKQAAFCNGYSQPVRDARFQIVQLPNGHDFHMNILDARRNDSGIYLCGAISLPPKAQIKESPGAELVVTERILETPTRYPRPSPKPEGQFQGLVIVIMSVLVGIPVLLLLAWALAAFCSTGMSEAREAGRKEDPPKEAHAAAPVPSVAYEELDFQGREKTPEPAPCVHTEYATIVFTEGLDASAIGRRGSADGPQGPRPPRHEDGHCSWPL
# T2: mouse-PD-L2 (positive control of Example 12) (mouse, UniProt Q9WUL5 20-219, limits assumed)
# T2 sequence (looked up): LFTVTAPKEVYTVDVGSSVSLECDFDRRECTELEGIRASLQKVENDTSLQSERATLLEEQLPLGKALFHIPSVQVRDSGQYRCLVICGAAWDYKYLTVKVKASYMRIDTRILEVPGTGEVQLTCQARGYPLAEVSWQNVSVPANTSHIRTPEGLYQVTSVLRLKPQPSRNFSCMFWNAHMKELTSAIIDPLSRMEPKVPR
# B1: Rat-PD-L1-Fc-Tag (Creative BioMart) (Fc fusion, not shown: a dimerising Fc or GST; small tags and cut ends)
# chain: FTITAPKDLYVVEYGSNVTMECRFPVEQKLDLLALVVYWEKEDKEVIQFVEGEEDLKPQHSSFRGRAFLPKDQLLKGNAVLQITDVKLQDAGVYCCMISYGGADYKRITLKVNAPYRKINQRISMDPATSEHELMCQAEGYPEAEVIWTNSDHQSLSGETTVTTSQTEEKLLNVTSVLRVNATANDVFHCTFWRVHSGENHTAELIIPELPVPRLPHNRTH
# B2: mAb4 (antibody, V domains shown)
# VH: QVQLVQSGAEVKKPGASVKVSCKASGYTFTSYWINWVRQAPGQGLEWMGNIYPGSSLTNYNEKFKNRVTMTRDTSTSTVYMELSSLRSEDTAVYYCARLLTGTFAYWGQGTLVTVSS
# VL: DIVMTQSPDSLAVSLGERATINCKSSQSLWDSTNQKNFLTWYQQKPGQPPKLLIYWTSTRESGVPDRFSGSGSGTDFTLTISSLQAEDVAVYYCQNDYFYPLTFGGGTKVEIK
# notes: Variable regions only
# B3: rat-PD-1 (recombinant purified, Example 12) (receptor)
# chain: LEVLNKPWRPLTFSPTWLTVSEGANATFTCSFSNWSEDLKLNWYRLSPSNQTEKQAAFCNGYSQPVRDARFQIVQLPNGHDFHMNILDARRNDSGIYLCGAISLPPKAQIKESPGAELVVTERILETPTRYPRPSPKPEGQFQGL
# Tests used:
# [1] = molecular target: hu-FcRn (human neonatal Fc receptor) (human) (UniProt P55899); assay: SPR (ProteOn NLC chip), 25 C, pH 5.9, n = 3
# [2] = molecular target: Cynomolgus Monkey-FcRn (cynomolgus monkey) (UniProt Q8SPV9); assay: SPR (ProteOn NLC chip), 25 C, pH 5.9, n = 3
# [3] = molecular target: hu-FCGRI (hu-CD64) (human) (UniProt P12314); assay: SPR (ProteOn NLC chip), 25 C, pH 7.4, n = 4
# [4] = molecular target: hu-FCGRIIa (hu-CD32a) 131R (human) (UniProt P12318); assay: SPR (ProteOn NLC chip), 25 C, pH 7.4
# [5] = molecular target: hu-FCGRI (hu-CD64) (human) (UniProt P12314); assay: SPR (ProteOn NLC chip), 25 C, pH 7.4
# [6] = molecular target: hu-FCGRIIa (hu-CD32a) 131H (human) (UniProt P12318); assay: SPR (ProteOn NLC chip), 25 C, pH 7.4
# [7] = molecular target: hu-FCGRIIb (hu-CD32b) (human) (UniProt P31994); assay: SPR (ProteOn NLC chip), 25 C, pH 7.4
# [8] = molecular target: Cynomolgus Monkey-FCGRIIIa 42S (cynomolgus monkey); assay: SPR (ProteOn NLC chip), 25 C, pH 7.4, n = 3
# [9] = molecular target: Cynomolgus Monkey-FCGRIIIa 42R (cynomolgus monkey) (UniProt Q8SPW2); assay: SPR (ProteOn NLC chip), 25 C, pH 7.4, n = 3
# [10] = molecular target: Cynomolgus Monkey-FCGRIIa (cynomolgus monkey); assay: SPR (ProteOn NLC chip), 25 C, pH 7.4, n = 3
# [11] = molecular target: T1, rat PD-1 on primary rat T cells; assay: flow cytometry, activated rat T cells
# [12] = molecular target: T3, human PD-1 (hPD-1) monomer (human, UniProt Q15116 25-167); assay: SPR, human PD-1, 37 C
# T3 construct: also called hu-PD-1; not shown: His tag (His-tagged monomer)
# [13] = molecular target: T2, mouse-PD-L2 (positive control of …); assay: SPR, 25 C
# [14] = molecular target: mouse-PD-L1 (positive control of Example 12) (mouse, UniProt Q9EP73 19-238, limits assumed); assay: SPR, 25 C
# Chain of hu-FCGRI (hu-CD64) (human) (P12314 16-288 limits assumed): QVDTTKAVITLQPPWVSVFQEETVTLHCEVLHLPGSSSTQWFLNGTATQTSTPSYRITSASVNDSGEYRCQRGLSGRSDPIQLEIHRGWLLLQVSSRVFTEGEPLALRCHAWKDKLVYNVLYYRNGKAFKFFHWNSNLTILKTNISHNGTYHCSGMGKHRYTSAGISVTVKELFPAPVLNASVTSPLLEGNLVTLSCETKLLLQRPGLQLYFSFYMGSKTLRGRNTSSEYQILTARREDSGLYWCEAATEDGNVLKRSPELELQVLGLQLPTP
# Chain of Cynomolgus Monkey-FcRn (cynomolgus monkey) (Q8SPV9 24-297 limits assumed, form in doubt): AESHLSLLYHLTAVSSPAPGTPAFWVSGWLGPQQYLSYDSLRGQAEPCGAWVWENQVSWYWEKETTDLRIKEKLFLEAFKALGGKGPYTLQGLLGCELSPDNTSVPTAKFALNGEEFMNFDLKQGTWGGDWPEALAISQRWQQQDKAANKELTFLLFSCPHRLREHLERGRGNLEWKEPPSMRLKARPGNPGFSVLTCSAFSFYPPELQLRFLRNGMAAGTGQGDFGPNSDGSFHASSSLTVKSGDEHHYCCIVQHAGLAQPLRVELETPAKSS
# Chain of hu-FCGRIIb (hu-CD32b) (human) (P31994 46-217): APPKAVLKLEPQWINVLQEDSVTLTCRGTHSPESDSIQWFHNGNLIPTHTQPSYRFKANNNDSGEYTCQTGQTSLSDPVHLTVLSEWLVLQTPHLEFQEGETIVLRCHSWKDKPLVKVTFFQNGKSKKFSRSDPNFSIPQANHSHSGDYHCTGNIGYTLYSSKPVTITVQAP
# Chain of hu-FCGRIIa (hu-CD32a) 131R (human) (P12318 36-218 H167R): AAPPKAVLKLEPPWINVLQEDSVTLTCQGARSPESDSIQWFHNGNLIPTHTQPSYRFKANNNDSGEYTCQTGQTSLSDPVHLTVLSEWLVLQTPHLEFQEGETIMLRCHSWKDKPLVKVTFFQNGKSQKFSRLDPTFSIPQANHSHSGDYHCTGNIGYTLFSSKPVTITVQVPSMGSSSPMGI
# Chain of hu-FcRn (human neonatal Fc receptor) (human) (P55899 24-297 limits assumed, chain 1 of 2): as the sequence (Q8SPV9 24-297 limits assumed, form in doubt) above, with D39N, Q44E, S99G, G189S, N190S, M217L, T269S counted along it
# Chain of hu-FcRn (human neonatal Fc receptor) (human) (chain, as listed by the source limits assumed, chain 2 of 2): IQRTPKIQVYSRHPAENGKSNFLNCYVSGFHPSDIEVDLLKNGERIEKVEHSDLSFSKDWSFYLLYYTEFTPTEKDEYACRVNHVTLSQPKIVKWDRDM
# Chain of hu-FCGRIIa (hu-CD32a) 131H (human) (P12318 36-218): as the sequence (P12318 36-218 H167R) above, with R132H counted along it
# Chain of Cynomolgus Monkey-FCGRIIIa 42R (cynomolgus monkey) (Q8SPW2 17-208 limits assumed): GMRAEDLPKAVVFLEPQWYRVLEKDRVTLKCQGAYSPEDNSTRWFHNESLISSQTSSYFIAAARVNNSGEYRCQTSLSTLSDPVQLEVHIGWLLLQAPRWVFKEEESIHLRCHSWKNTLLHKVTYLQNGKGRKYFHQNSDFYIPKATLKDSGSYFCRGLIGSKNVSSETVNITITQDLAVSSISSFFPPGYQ
# T3 sequence (Q15116 25-167 limits assumed): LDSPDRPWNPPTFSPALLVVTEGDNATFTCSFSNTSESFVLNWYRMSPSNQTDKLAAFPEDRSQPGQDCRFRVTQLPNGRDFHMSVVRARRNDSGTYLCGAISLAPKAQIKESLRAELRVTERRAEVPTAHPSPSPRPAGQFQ
molecule,measurement,setting,value
"Isotype-matched control, hu-IgG4 (antibody)",Kd,[1],820 nM
same,Kd,[2],570 nM
same,Kd,[3],0.177 nM
same,Kd,[4],400 nM
same,koff,[5],0.0018 s⁻¹
same,kon,[5],1e+06 M⁻¹ s⁻¹
same,Kd,[6],3900 nM
same,Kd,[7],700 nM
same,Kd,[8],1900 nM
same,Kd,[9],3200 nM
same,Kd,[10],2600 nM
B1,binding result,[11],binds
B2,Kd,[12],89 nM
B3,binding result,[13],binds
same,binding result,[14],binds
